The data set can be described thus: self-splicing fitness, log relative to wild type (ln ratio); higher = more splicing; Tetrahymena group I intron in knt gene, E. coli kanamycin selection, DiMSum; sequences stand for … in CUCUCU…GGAGGGAAAAGUUAUCAGGCAUGCACCUGGUAGCUAGUCUUUAAACCAAUAGAUUGCAUCGGUUUAAAAGGCAAGACCGUCAAAUUGCGGGAAAGGGGUCAACAGCCGUUCAGUACCAAGUCUCAGGGGAAACUUUGAGAUGGCCUUGCAAAGGGUAUGGUAAUAAGCUGACGGACAUGGUCCUAACCACGCAGCCAAGUCCUAAGUCAACAGAUCUUCUGUUGAUAUGGAUGCAGUUCACAGACUAAAUGUCGGUCGGGGAAGAUGUAUUCUUCUCAUAAGAUAUAGUCGGACCUCUCCUUAAUGGGAGCUAGCGGAUGAAGUGAUGCAACACUGGAGCCGCUGGGAACUAAUUUGUAUGCGAAAGUAUAUUGAUUAGUUUUGGAGUACUCGUGGUCG
The essentials:
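Fitness was computed with DiMSum as the error-weighted combination of replicate fold changes, kanamycin versus none, each normalised to wild type. The library randomised all eight intron nucleotides of the P1ex region, with the intron placed in the knt kanamycin-resistance gene on pET-22b(+) in E. coli BL21(DE3). Six replicate transformations were grown overnight at 37°C or 30°C on LB agar with or without 25 μg/mL kanamycin, plus 100 μg/mL carbenicillin, 50 μM IPTG and 0.2% rhamnose. Pooled colonies were amplicon-sequenced on an Illumina HiSeq 2500.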

± gives the uncertainty stated by the source.

With UGGUAGCAAUAUUACGCCAG, the “self-splicing fitness (ln)” value reads like this: (30 °C) -1.16 ± 0.28; (37 °C) -0.742 ± 0.3. In the same order, the values of UCGCAGCAAUAUUACGCAAU are -2.15 ± 0.19 and -2.92 ± 0.35. Take ACAUAGCAAUAUUACGGCAU: the “self-splicing fitness (ln)” value reads like this: (30 °C) -1.06 ± 0.072; (37 °C) -0.486 ± 0.079.

As to UGGAAGCAAUAUUACGUUCA, the “self-splicing fitness (ln)” value reads like this: (30 °C) -0.654 ± 0.069; (37 °C) 0.00518 ± 0.092. Taken in the same sequence, the figures for CCCUAGCAAUAUUACGGUUC were -3.92 ± 0.16 and -2.04 ± 0.21.

In the case of AGAGAGCAAUAUUACGAUAA, the “self-splicing fitness (ln)” value (37 °C) is -2.71 ± 0.28. For the sequence UCCGAGCAAUAUUACGUUGC, the “self-splicing fitness (ln)” value is, setting by setting: (30 °C) -3.03 ± 0.21; (37 °C) -2.16 ± 0.24. Taken in the same sequence, the figures for UCCAAGCAAUAUUACGGCUG were -2.69 ± 0.15 and -3.33 ± 0.22.

Consider GAUAAGCAAUAUUACGCACA, for which the “self-splicing fitness (ln)” value (30 °C) was -0.364 ± 0.14 and the “self-splicing fitness (ln)” value (37 °C) was 0.39 ± 0.18.

Turning to GGGCAGCAAUAUUACGUCUA, the “self-splicing fitness (ln)” value reads like this: (30 °C) 0.309 ± 0.1; (37 °C) -1.04 ± 0.1. In the same order, the values of CAUAAGCAAUAUUACGCAGA are -2.5 ± 0.17 and -2.51 ± 0.17. In the same order, the values of CGUAAGCAAUAUUACGAGCA are -1.84 ± 0.48 and -1.33 ± 0.22. In the same order, the values of CAGUAGCAAUAUUACGACGA are -1.39 ± 0.13 and -0.446 ± 0.13. For AUCUAGCAAUAUUACGUAAA, the “self-splicing fitness (ln)” value by setting is: (30 °C) -2.41 ± 0.15; (37 °C) -1.29 ± 0.14.

In the case of AGCUAGCAAUAUUACGCUUG, the “self-splicing fitness (ln)” value by setting is: (30 °C) -3.96 ± 0.26; (37 °C) -2.9 ± 0.25. In the same order, the values of GAUAAGCAAUAUUACGAAGU are -2.4 ± 0.18 and -1.15 ± 0.23. Taken in the same sequence, the figures for ACUUAGCAAUAUUACGGCAU were -1.01 ± 0.071 and -0.0593 ± 0.088. As for AGGCAGCAAUAUUACGCUCU, the “self-splicing fitness (ln)” value (30 °C) is -2.31 ± 0.34. Take CUGCAGCAAUAUUACGGAGA: the “self-splicing fitness (ln)” value (30 °C) is -3.35 ± 0.22 and the “self-splicing fitness (ln)” value (37 °C) was -2.83 ± 0.34. In the same order, the values of UGACAGCAAUAUUACGGUUC are -2.92 ± 0.11 and -1.79 ± 0.085. Regarding GCUAAGCAAUAUUACGGCUA, the “self-splicing fitness (ln)” value (30 °C) is -0.811 ± 0.093 and the “self-splicing fitness (ln)” value (37 °C) is -0.399 ± 0.11. For CGUGAGCAAUAUUACGUAAG, the “self-splicing fitness (ln)” value runs as follows: (30 °C) -0.896 ± 0.1; (37 °C) -1.14 ± 0.15.

As to CAUCAGCAAUAUUACGACUU, the “self-splicing fitness (ln)” value reads like this: (30 °C) -1.85 ± 0.081; (37 °C) -0.408 ± 0.081. Taken in the same sequence, the figures for UCGUAGCAAUAUUACGACUG were -1.02 ± 0.2 and -2.28 ± 0.34. Taken in the same sequence, the figures for AUAAAGCAAUAUUACGCAUG were -0.888 ± 0.073 and -0.405 ± 0.093. In the same order, the values of GUCCAGCAAUAUUACGUUGA are -0.801 ± 0.057 and -0.239 ± 0.071. For CAUUAGCAAUAUUACGUCCG, the “self-splicing fitness (ln)” value is, setting by setting: (30 °C) -0.0564 ± 0.12; (37 °C) -0.142 ± 0.15. As to AACCAGCAAUAUUACGCUAC, the “self-splicing fitness (ln)” value was -2.63 ± 0.14 (30 °C) and -2.05 ± 0.13 (37 °C). Taken in the same sequence, the figures for UUGCAGCAAUAUUACGACCA were -1.8 ± 0.24 and -0.0142 ± 0.18. In the same order, the values of CGCGAGCAAUAUUACGGGCA are -0.464 ± 0.084 and -0.0497 ± 0.11.

For UUAUAGCAAUAUUACGGCGU, the “self-splicing fitness (ln)” value runs as follows: (30 °C) -2.88 ± 0.34; (37 °C) -1.7 ± 0.23. In the same order, the values of ACUCAGCAAUAUUACGGACA are -1.02 ± 0.1 and -1.06 ± 0.12. Taken in the same sequence, the figures for CCUUAGCAAUAUUACGUCAC were -3.46 ± 0.26 and -2.21 ± 0.29. Taken in the same sequence, the figures for ACGGAGCAAUAUUACGCUUA were -2.71 ± 0.17 and -1.03 ± 0.11. Consider GUGGAGCAAUAUUACGGAUU, for which the “self-splicing fitness (ln)” value (30 °C) is -3.15 ± 0.47. For GGGAAGCAAUAUUACGCUUG, the “self-splicing fitness (ln)” value is -1.61 ± 0.21 (30 °C) and -0.729 ± 0.2 (37 °C). In the same order, the values of AUAAAGCAAUAUUACGCUCC are -0.366 ± 0.16 and -0.365 ± 0.24.

With AUCAAGCAAUAUUACGGUGA, the “self-splicing fitness (ln)” value is -1.36 ± 0.096 (30 °C) and -0.818 ± 0.1 (37 °C).

Source of the values: the supplement of paper PMC7877785.
